Data reported in patent publication US9260500B2, “Peptide and use thereof” (Takeda Pharmaceutical Company Limited, priority 2009, dated 2016).
Non-standard residues stand in square brackets, D forms with d. *: point of attachment. (2-amino-2-oxoethyl)carbamoyl = NC(=O)CNC(=O)*; (3-Carboxypropyl)carbamoyl = O=C(O)CCCNC(=O)*; (2-Carboxyethyl)carbamoyl = O=C(O)CCNC(=O)*; (2-carboxyethyl)carbamoyl = O=C(O)CCNC(=O)*; Imidazole4carbonyl = O=C(c1cnc[nH]1)*; tBuAla = CC(C)(C)C[C@H](N)C(=O)O; 4Pal = N[C@@H](Cc1ccncc1)C(=O)O; dHyp = O=C(O)[C@H]1C[C@H](O)CN1; Cha = N[C@@H](CC1CCCCC1)C(=O)O; Isonicotinoyl = O=C(c1ccncc1)*; Iva = CC[C@](C)(N)C(=O)O; Aib = CC(C)(N)C(=O)O

Legend:
human Y2 receptor [1] = target: T1, human Y2 receptor (Homo sapiens, UniProt P49146); experiment: Receptor Binding Assay (RBA) for Human Y2, [125I]-PYY displacement on hY2R/CHO membrane fraction; conditions: IC50 of test compound/IC50 of PYY(3-36) (PYY(3-36) taken as 1)
T1 construct: expressed in transfected cells; membrane fraction
T1 sequence (P49146 1-381): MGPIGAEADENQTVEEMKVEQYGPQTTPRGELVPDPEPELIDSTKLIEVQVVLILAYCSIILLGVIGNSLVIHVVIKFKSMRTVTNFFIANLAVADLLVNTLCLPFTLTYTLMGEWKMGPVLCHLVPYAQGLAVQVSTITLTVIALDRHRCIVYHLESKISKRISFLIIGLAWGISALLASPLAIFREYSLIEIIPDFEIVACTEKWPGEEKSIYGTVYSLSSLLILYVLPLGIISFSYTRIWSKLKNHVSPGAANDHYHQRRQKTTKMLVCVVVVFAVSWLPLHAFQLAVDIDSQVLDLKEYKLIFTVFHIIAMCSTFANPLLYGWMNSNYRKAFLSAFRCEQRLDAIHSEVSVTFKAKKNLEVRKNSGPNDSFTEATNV
Outline: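 Read-out is [125I]-PYY displacement from membranes of CHO/dhfr− cells stably transfected with human Y2R. Membranes were obtained by disrupting cells in a buffer of 10 mM NaHCO3, 5 mM EDTA and protease inhibitors.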

human Y2 receptor [2] = target: T1, human Y2 receptor; experiment: Human Y2 Receptor G Protein Binding Assay (GBA), [35S]GTPγS; type: biochemical; conditions: EC50 of test compound/EC50 of PYY(3-36) (PYY3-36 taken as 1), hY2R/CHO membrane fraction
Outline: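 Agonism measured as [35S]GTPγS binding, read by GF/C filtration and scintillation counting after 120 min at room temperature, using human Y2 membranes at 1 μg protein/mL in pH 7.4 Tris/MgCl2/NaCl/GDP buffer. Compound serially diluted 100 μM–1 nM; EC50 normalized to PYY(3-36) (ratio = compound/PYY).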

male C57EL/6J mice = experiment: 3-Days Continuous Subcutaneous Administration Test-1 (food intake suppressing activity); type: in vivo, mouse; conditions: 0.03 mg/kg/day, subcutaneous Alzet pump, food consumption over 3 days; relative to food intake suppression rate for PYY(3-36) (1 mg/kg/day) taken as 100%
Protocol: (4) Test Method: 3-Days Continuous Subcutaneous Administration Test-1
The food intake suppressing activity of the compound of the present invention was examined by the method described below.
The test compound was dissolved in 50% DMSO so that sustained release would occur at 0.03 mg/kg/day, and the solution was filled in the Alzet Pump (Alzet model: 1003D, sustained release rate: 1 μL/hr, capacity: 100 μL). After the filling, the pump was placed in a 2 mL Eppendorf tube containing 330 μL of physiological saline, and incubated at 37° C. for 2 hours or more. Thereafter, this pump was subcutaneously embedded in the back of each mouse by the method described below. After weighing, each male […] mice at 12-13 weeks of age (25° C., allowed to take food and water ad libitum; 12-hour bright-12-hour dark cycle, lighting turned on at 08:00) was anesthetized with diethyl ether; the skin in the upper back thereof was incised, and the above-mentioned pump was embedded subcutaneously. Thereafter, several drops of penicillin solution (100000 units/mL) were added to the incised part, and the incision was sutured using Michel's surgical needle. This mouse was returned to the rearing cage (reared alone), and given previously weighed food; 3 days later, the amount of remaining food was measured. Food consumption was calculated by subtracting the amount of remaining food after 3 days from the weight of the food given on the day of pump embedding. The food intake suppressing activity of each test compound was expressed as a food intake suppression rate (%) relative to the food intake suppression rate for PYY(3-36) (1 mg/kg/day) taken as 100%.

Substance | RBA IC50 Ratio (human Y2 receptor [1]) | GBA EC50 Ratio (human Y2 receptor [2]) | food intake suppression rate (%) (male C57EL/6J mice)
4-Imidazolecarbonyl-[D-Pro24, Pya(4)26, Cha27,36, Aib28,31, Lys30]-PYY(23-36) (Imidazole4carbonyl-S[dP]R[4Pal][Cha][Aib]NK[Aib]TRQR[Cha]-NH2; SMILES C[C@@H](O)[C@H](NC(=O)C(C)(C)NC(=O)[C@H](CCCCN)NC(=O)[C@H](CC(N)=O)NC(=O)C(C)(C)NC(=O)[C@H](CC1CCCCC1)NC(=O)[C@H](Cc1ccncc1)NC(=O)[C@H](CCCNC(=N)N)NC(=O)[C@H]1CCCN1C(=O)[C@H](CO)NC(=O)c1cnc[nH]1)C(=O)N[C@@H](CCCNC(=N)N)C(=O)N[C@@H](CCC(N)=O)C(=O)N[C@@H](CCCNC(=N)N)C(=O)N[C@@H](CC1CCCCC1)C(N)=O) [compound No. 213] | 0.76 | 1.1 | 33
4-Imidazolecarbonyl-[Glu23, D-Pro24, Pya(4)26, Cha27,36, Aib28,31, Lys30]-PYY(23-36) (Imidazole4carbonyl-E[dP]R[4Pal][Cha][Aib]NK[Aib]TRQR[Cha]-NH2; SMILES C[C@@H](O)[C@H](NC(=O)C(C)(C)NC(=O)[C@H](CCCCN)NC(=O)[C@H](CC(N)=O)NC(=O)C(C)(C)NC(=O)[C@H](CC1CCCCC1)NC(=O)[C@H](Cc1ccncc1)NC(=O)[C@H](CCCNC(=N)N)NC(=O)[C@H]1CCCN1C(=O)[C@H](CCC(=O)O)NC(=O)c1cnc[nH]1)C(=O)N[C@@H](CCCNC(=N)N)C(=O)N[C@@H](CCC(N)=O)C(=O)N[C@@H](CCCNC(=N)N)C(=O)N[C@@H](CC1CCCCC1)C(N)=O) [compound No. 216] | 1.3 | 1.3 | 36
4-Pyridinecarbonyl-[D-Hyp24, Iva25,28, Pya(4)26, Cha27,36, Lys30, Aib31]-PYY (23-36) (Isonicotinoyl-S[dHyp][Iva][4Pal][Cha][Iva]NK[Aib]TRQR[Cha]-NH2; SMILES CC[C@](C)(NC(=O)[C@H](CC1CCCCC1)NC(=O)[C@H](Cc1ccncc1)NC(=O)[C@](C)(CC)NC(=O)[C@H]1C[C@H](O)CN1C(=O)[C@H](CO)NC(=O)c1ccncc1)C(=O)N[C@@H](CC(N)=O)C(=O)N[C@@H](CCCCN)C(=O)NC(C)(C)C(=O)N[C@H](C(=O)N[C@@H](CCCNC(=N)N)C(=O)N[C@@H](CCC(N)=O)C(=O)N[C@@H](CCCNC(=N)N)C(=O)N[C@@H](CC1CCCCC1)C(N)=O)[C@@H](C)O) [compound No. 334] | 1.3 | 1.6 | 14
4-Pyridinecarbonyl-[D-Hyp24, Iva25, Pya(4)26, Cha27,36, Leu(Me)28, Lys30, Aib31]-PYY(23-36) (Isonicotinoyl-S[dHyp][Iva][4Pal][Cha][tBuAla]NK[Aib]TRQR[Cha]-NH2; SMILES CC[C@](C)(NC(=O)[C@H]1C[C@H](O)CN1C(=O)[C@H](CO)NC(=O)c1ccncc1)C(=O)N[C@@H](Cc1ccncc1)C(=O)N[C@@H](CC1CCCCC1)C(=O)N[C@@H](CC(C)(C)C)C(=O)N[C@@H](CC(N)=O)C(=O)N[C@@H](CCCCN)C(=O)NC(C)(C)C(=O)N[C@H](C(=O)N[C@@H](CCCNC(=N)N)C(=O)N[C@@H](CCC(N)=O)C(=O)N[C@@H](CCCNC(=N)N)C(=O)N[C@@H](CC1CCCCC1)C(N)=O)[C@@H](C)O) [compound No. 333] | 0.93 | 1.6 | 28
4-Pyridinecarbonyl-[D-Pro24, Iva25, Pya(4)26, Cha27,36, Aib28,31, Lys30]-PYY(23-36) (Isonicotinoyl-S[dP][Iva][4Pal][Cha][Aib]NK[Aib]TRQR[Cha]-NH2; SMILES CC[C@](C)(NC(=O)[C@H]1CCCN1C(=O)[C@H](CO)NC(=O)c1ccncc1)C(=O)N[C@@H](Cc1ccncc1)C(=O)N[C@@H](CC1CCCCC1)C(=O)NC(C)(C)C(=O)N[C@@H](CC(N)=O)C(=O)N[C@@H](CCCCN)C(=O)NC(C)(C)C(=O)N[C@H](C(=O)N[C@@H](CCCNC(=N)N)C(=O)N[C@@H](CCC(N)=O)C(=O)N[C@@H](CCCNC(=N)N)C(=O)N[C@@H](CC1CCCCC1)C(N)=O)[C@@H](C)O) [compound No. 301] | 1.0 | 1.1 | 35
(2-Carboxyethyl)carbamoyl-[D-Pro24, Iva25, Pya(4)26, Cha27,36, Aib28,31, Lys30]-PYY(23-36) ({(2-carboxyethyl)carbamoyl}-S[dP][Iva][4Pal][Cha][Aib]NK[Aib]TRQR[Cha]-NH2; SMILES CC[C@](C)(NC(=O)[C@H]1CCCN1C(=O)[C@H](CO)NC(=O)NCCC(=O)O)C(=O)N[C@@H](Cc1ccncc1)C(=O)N[C@@H](CC1CCCCC1)C(=O)NC(C)(C)C(=O)N[C@@H](CC(N)=O)C(=O)N[C@@H](CCCCN)C(=O)NC(C)(C)C(=O)N[C@H](C(=O)N[C@@H](CCCNC(=N)N)C(=O)N[C@@H](CCC(N)=O)C(=O)N[C@@H](CCCNC(=N)N)C(=O)N[C@@H](CC1CCCCC1)C(N)=O)[C@@H](C)O) [compound No. 341] | 3.2 | 2.4 | 35
(2-Carboxyethyl)carbamoyl-[D-Pro24, Pya(4)26, Cha27,36, Aib28,31, Lys30]-PYY(23-36) ({(2-Carboxyethyl)carbamoyl}-S[dP]R[4Pal][Cha][Aib]NK[Aib]TRQR[Cha]-NH2; SMILES C[C@@H](O)[C@H](NC(=O)C(C)(C)NC(=O)[C@H](CCCCN)NC(=O)[C@H](CC(N)=O)NC(=O)C(C)(C)NC(=O)[C@H](CC1CCCCC1)NC(=O)[C@H](Cc1ccncc1)NC(=O)[C@H](CCCNC(=N)N)NC(=O)[C@H]1CCCN1C(=O)[C@H](CO)NC(=O)NCCC(=O)O)C(=O)N[C@@H](CCCNC(=N)N)C(=O)N[C@@H](CCC(N)=O)C(=O)N[C@@H](CCCNC(=N)N)C(=O)N[C@@H](CC1CCCCC1)C(N)=O) [compound No. 326] | 1.3 | 0.94 | 57
(2-amino-2-oxoethyl)carbamoyl-[D-Pro24, Pya(4)26, Cha27,36, Aib28,31, Lys30]-PYY(23-36) ({(2-amino-2-oxoethyl)carbamoyl}-S[dP]R[4Pal][Cha][Aib]NK[Aib]TRQR[Cha]-NH2; SMILES C[C@@H](O)[C@H](NC(=O)C(C)(C)NC(=O)[C@H](CCCCN)NC(=O)[C@H](CC(N)=O)NC(=O)C(C)(C)NC(=O)[C@H](CC1CCCCC1)NC(=O)[C@H](Cc1ccncc1)NC(=O)[C@H](CCCNC(=N)N)NC(=O)[C@H]1CCCN1C(=O)[C@H](CO)NC(=O)NCC(N)=O)C(=O)N[C@@H](CCCNC(=N)N)C(=O)N[C@@H](CCC(N)=O)C(=O)N[C@@H](CCCNC(=N)N)C(=O)N[C@@H](CC1CCCCC1)C(N)=O) [compound No. 292] | 1.2 | 0.74 | 36
(3-Carboxypropyl)carbamoyl-[D-Hyp24, Iva25, Pya(4)26, Cha27,36, Leu(Me)28, Lys30, Aib31]-PYY(23-36) ({(3-Carboxypropyl)carbamoyl}-S[dHyp][Iva][4Pal][Cha][tBuAla]NK[Aib]TRQR[Cha]-NH2; ends and bridges not checked) [compound No. 349] | 0.57 | 1.7 | 52
(3-Carboxypropyl)carbamoyl-[D-Pro24, Iva25, Pya(4)26, Cha27,36, Aib28,31, Lys30]-PYY(23-36) ({(3-Carboxypropyl)carbamoyl}-S[dP][Iva][4Pal][Cha][Aib]NK[Aib]TRQR[Cha]-NH2; SMILES CC[C@](C)(NC(=O)[C@H]1CCCN1C(=O)[C@H](CO)NC(=O)NCCCC(=O)O)C(=O)N[C@@H](Cc1ccncc1)C(=O)N[C@@H](CC1CCCCC1)C(=O)NC(C)(C)C(=O)N[C@@H](CC(N)=O)C(=O)N[C@@H](CCCCN)C(=O)NC(C)(C)C(=O)N[C@H](C(=O)N[C@@H](CCCNC(=N)N)C(=O)N[C@@H](CCC(N)=O)C(=O)N[C@@H](CCCNC(=N)N)C(=O)N[C@@H](CC1CCCCC1)C(N)=O)[C@@H](C)O) [compound No. 328] | 1.6 | 1.9 | 75
